Test results: publication PMC9228748, “The Denaturant- and Mutation-Induced Disassembly of Pseudomonas aeruginosa Hexameric Hfq Y55W Mutant” (Molecules, 2022)
Several values for one entry are separate records, joined by “and”; a condition that tells them apart may be missing. Equal values may be shown once.

Key:
[1] = biological target: the molecule itself; test: crystal structure; hanging drop vapor diffusion at 25 °C; 7% PEG 2000 MME, 2% MPD, 50 mM Tris-HCl pH 6.5; asymmetric part holds three subunits, hexamer by crystallographic symmetry
[2] = biological target: the molecule itself; test: dynamic light scattering; pH 1.4, 100 µM protein (monomer), 25 °C

B1: Pseudomonas aeruginosa Hfq Y55W mutant (natural protein)
chain: MSKGHSLQDPYLNTLRKERVPVSIYLVNGIKLQGQIESFDQFVILLKNTVSQMVWKHAISTVVPSRPVRLPSGDQPAEPGNA
notes: also called Y55W (hexamer); Pae Hfq Y55W
stoichiometry N [1]: 6 | stoichiometry N [2]: 3 and 2
